# Where two headings read alike, the source gives them in different places.
# T1: BenM (Acinetobacter baylyi, UniProt O68014)
# T1 sequence (O68014 whole entry, looked up): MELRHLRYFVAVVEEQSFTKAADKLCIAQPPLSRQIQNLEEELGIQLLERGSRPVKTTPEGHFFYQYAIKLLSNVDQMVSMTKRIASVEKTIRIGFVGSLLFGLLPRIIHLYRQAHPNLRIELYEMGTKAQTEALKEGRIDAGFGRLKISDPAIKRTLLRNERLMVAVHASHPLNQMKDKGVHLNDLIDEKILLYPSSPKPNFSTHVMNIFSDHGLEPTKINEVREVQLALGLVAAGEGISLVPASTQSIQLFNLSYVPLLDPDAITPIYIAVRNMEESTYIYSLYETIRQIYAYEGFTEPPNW
# Tests used:
# [1] = molecular target: T1, BenM; assay: Screening 17 yeast strains with BenO at different positions upstream of TATA1 of 209 bp CYC1p; format: cell-based; design: expressed in transfected cells; promoters TDH3p, TEF1p, RNR2p or REV1p; settings: BenM from REV1p, 1.4 mM CCM, 24 h
# Procedure: FIG. 14. Screening 17 yeast strains expressing BenM from the REV1p in combination with CYC1p reporter promoter of 209 bp with BenO placed at different positions upstream of TATA1. The fold induction (mean±s.d.) was calculated by dividing mean fluorescence intensity (MFI) in medium with 1.4 mM CCM by the MFI in control medium as measured by flow cytometry after 24 h of growth for three biological replicates.
# In addition to this, the present inventors also tested 17 different positions for positioning of the BenM binding site (benO).
# [2] = molecular target: T1, BenM; assay: CCM-induced GFP expression in yeast strains combining BenM expression cassettes and CYC1p reporter promoter variants (flow cytometry); format: cell-based, Saccharomyces cerevisiae; design: expressed in transfected cells; host or cells: Saccharomyces cerevisiae CEN.PK113-5A, chromosomal integration; promoters TDH3p, TEF1p, RNR2p or REV1p; settings: 30° C. vs 37° C.
# Source text: Strains, chemicals and media. Saccharomyces cerevisiae CEN.PK102-5B (MATa ura3-52 his3Δ1 leu2-3/112 MAL2-8^c SUC2), CEN.PK113-5A (MATa, trp1 his3Δ1 leu2-3/112 MAL2-8^c SUC2) and CEN.PK113-7D (wild type, MATa MAL2-8^c SUC2) strains were obtained from Peter Kotter (Johann Wolfgang Goethe-University Frankfurt, Germany). In principal any other yeast strains may be used, such as one obtained from public repository EuroScarf. EasyClone plasmids used in this work are described in Jensen, N. B. et al. EasyClone: method for iterative chromosomal integration of multiple genes in Saccharomyces cerevisiae. FEMS Yeast Res. 14, 238-48 (2014). Escherichia coli strain DH5a was used as a host for cloning and plasmid propagation. The chemicals and Pfu TURBO DNA polymerase were commercially obtained (Sigma-Aldrich and Agilent Technologies Inc., respectively). All acids used were >97% in purity. S. cerevisiae cells were grown at 30° C. in synthetic complete medium as well as drop-out media and agar plates were prepared using pre-mixed drop-out powders (Sigma-Aldrich). Mineral medium was freshly prepared as described previously. For all media containing diacids, 1.4 mM of the individual diacids were dissolved in mineral medium and pH adjusted to 4.5 before sterile filtration. […]
# (§1) Events were analyzed using FlowJo software (TreeStar Inc.).
# [3] = tested on: BenO-containing human cytomegalovirus (CMV) promoter; settings: 24 h, GFP normalized by RFP; p<0.05 (t-test)
# Procedure: CHO cells were transfected with a plasmid with the BenO-containing human cytomegalovirus (CMV) promoter controlling the expression of GFP as well as an empty vector (− BenM) or a vector expressing BenM (+ BenM). Total GFP expression was measured after 24 h, and normalized by total RFP expression. Average and standard deviation are based on three biological replicates. *; p<0.05 (t-test).
# For testing the reporter promoter design with other promoter backbones AND in another eukaryotes, Chinese hamster ovary cells was transformed using the human cytomegalovirus promoter backbone (CMV) instead of the CYC1 promoter backbone used in yeast.
# Just as in the case with the yeast design using CYC1 promoter as a backbone, the present inventors put the binding site (benO) for the prokaryotic transcriptional activator BenM 6 bp upstream of the TATA box the CMV promoter and scored reporter gene activity (GFP fluorescence) in the presence and absence of the transcriptional activator BenM.
# [4] = tested on: 209 bp_CYC1p_T1 promoter; assay: LTTR-mediated activation of GFP expression from 209 bp_CYC1p_T1 reporter promoter in yeast, without ligand; format: cell-based, Saccharomyces cerevisiae; settings: LTTR expressed from strong TDH3 promoter
# Procedure: as §1
# The genetic device developed in this study represents to the best of our knowledge the first example of transplanting a prokaryotic transcriptional activator into a eukaryotic chassis and successfully using it to activate gene expression without the need for modifying the protein beyond codon optimization. […] To test the generality of the biosensor design for onboarding other small-molecule binding transcriptional activators as biosensors in yeast we selected four other candidates from the LTTR family; FdeR from Herbaspirillum seropedicae, PcaQ from Sinorhizobium meliloti, ArgP from Escherichia coli, and MdcR from Klebsiella pneumonia, with co-inducers naringenin, protocatechuic acid (PCA), L-arginine, and malonic acid, respectively. In this proof-of-principle study we selected the four candidates based on a minimal set of information, including knowledge about operator sequences, experimental evidence for ligand-inducible control of target operons, and their mode-of-action within native chassis (ie. activation, FIG. 1). Furthermore all of these metabolites can passively diffuse across the yeast plasma membrane, with the exception of malonic acid, which requires the expression of the dicarboxylic acid transporter MAE1 from Schizosaccharomyces pombe. […]
# [5] = tested on: CYC1 promoter with BenM operator (BenO); settings: BenM from TEF1 promoter
# Procedure: Cells grown for 24 h in control (mineral medium, pH 4.5) or inducing medium (mineral medium pH 4.5+1.4 mM CCM, 1.4 mM protocatechuic acid, 10 mM malonic acid, 0.2 mM naringenin, or 50 mM L-arginine) were diluted into PBS to arrest cell growth. Cells were then analyzed by flow cytometry using a Fortessa flow cytometer (Becton Dickinson) with a blue laser (488 nm), for validation of single strains. For each strain 10,000 single-cell events were recorded. Events were analyzed using FlowJo software (TreeStar Inc.). The fluorescence arithmetic mean of the gated cell population was calculated, and the fold-change determined by dividing the mean fluorescence of the induced (ON) state with the mean fluorescence of the control (OFF) state. For flow cytometry for CCM and naringenin producing cells we tested mean fluorescence intensities from 10,000 cells pr. strain following 72 and 48 h, respectively. The data represent the average of three (n=3) biological replicates and error bars correspond to the standard deviation between these measurements.
# Initially, BenO was introduced into the 491 bp CYC1 promoter immediately upstream of one of the two TATA boxes—TATA-1β (designated 491 bp_CYC1p_BenO_T1) or TATA-2α (designated 491 bp_CYC1p_BenO_T2), or upstream of both (designated 491 bp_CYC1p_BenO_T1/T2)(FIG. 2a). Outputs from these engineered promoters were compared by flow cytometry to expression from the native CYC1p (491 bp_CYC1p) using GFP as the reporter (FIG. 1a and FIG. 2a).
molecule,measurement,setting,value
"BenM: CCM-inducible LysR-type transcriptional activator from Acinetobacter sp ADP1, codon-optimized for yeast (protein, UniProt O68014 1-304, looked up, codon-optimized for yeast) HTH-type transcriptional …: MELRHLRYFVAVVEEQSFTKAADKLCIAQPPLSRQIQNLEEELGIQLLERGSRPVKTTPEGHFFYQYAIKLLSNVDQMVSMTKRIASVEKTIRIGFVGSLLFGLLPRIIHLYRQAHPNLRIELYEMGTKAQTEALKEGRIDAGFGRLKISDPAIKRTLLRNERLMVAVHASHPLNQMKDKGVHLNDLIDEKILLYPSSPKPNFSTHVMNIFSDHGLEPTKINEVREVQLALGLVAAGEGISLVPASTQSIQLFNLSYVPLLDPDAITPIYIAVRNMEESTYIYSLYETIRQIYAYEGFTEPPNW",response with BenO at 17 different positions upstream of TATA box,[1],Only position 6 upstream of the TATA box gave a significant response
same,dynamic range in output by temperature,[2],higher dynamic range in output at 30 °C compared to 37 °C
same,reporter (GFP) expression in CHO with vs without BenM,[3],activates reporter expression
same,activation of GFP expression compared to yeast cells without expression of an LTTR,[4],8.1 ×
same,induction of expression compared to promoter activity without co-expression of BenM,"[5]; 491 bp_CYC1p_BenO_T1/T2, no CCM",5 fold
same,induction of expression compared to promoter activity without co-expression of BenM,"[5]; 491 bp_CYC1p_BenO_T1, no CCM",20 fold
same,reduction in expression upon co-expression of BenM,"[5]; 491 bp_CYC1p_BenO_T2, no CCM",30%
same,effect of BenM on expression of native CYC1p without BenO,[5]; native 491 bp CYC1p,did not increase expression

# Reference: patent publication US20190185865A1, “USE OF PROKARYOTIC TRANSCRIPTIONAL ACTIVATORS AS METABOLITE BIOSENSORS IN EUKARYOTIC CELLS” (Danmarks Tekniske Universitet, priority 2016, published 2019)
